Measurements from the supplement of paper PMC11865577.

Each sequence was assayed on TO-N3 (biotin conjugate) (assay: pull-down binding Z-score (relative to library population); higher = stronger binding). Conditions: RNA library: Library-2.
Outline: (§1)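 Cy5- or Cy3-end-labelled RNA library (1 μg) was heat-folded in phosphate/NaCl/KCl buffer and incubated 60 min at 25 °C with streptavidin beads carrying 100 pmol biotin-conjugated small molecule. After three washes, bound RNA was eluted in hot SDS and hybridised 20 h at 55.5 °C to a DNA barcode microarray. Binding was scored by subtracting a beads-only control, averaging barcoded replicate probes after dropping highest and lowest, and converting to a Z-score against library mean and standard deviation.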

Sequence | pull-down binding Z-score
CAUGAUUUGGAAAAAUUACUG [hsa-mir-6128] | -0.151
CAUGCAGCAUGCUUGUCUG [hsa-mir-767] | -0.247
CAUGCAGGCCACACUGACGGUAACGUUGCAGG [hsa-mir-431] | 1.08
CAUGCAUGUGUCUAGAAAUAUGUUUU [hsa-mir-507] | 0.0527
CAUGCGCUAUCUCUGUGUCGUAUG [hsa-mir-380] | -0.0621
CAUGUAUGUGUAUAUACAUAUAUAUG [hsa-mir-297] | 0.218
CAUGUGCUGAGUUCGUGCCAUAUG [hsa-mir-654] | -0.299
CAUGUGGUGGAACGAUGGAAACGGAACAUG [hsa-mir-218-2] | 0.162
CAUGUUAAGUGUUGUCCUACAG [hsa-mir-5087] | -0.368
CAUUAACGUGGACCAGACAAUAUUAAUG [hsa-mir-4491] | -0.0907
CAUUACUAAACUCAGUAAUG [hsa-mir-451b] | -1.23
CAUUCACAUAGACUAUAAUUGAAUG [hsa-mir-652] | -0.944
CAUUCUUUGCUA [hsa-mir-567] | 0.664
CAUUGGUGUAAAGCUGGAGACCCACUG [hsa-mir-324] | 0.738
CAUUGUAACAUGAUAGUG [hsa-mir-4264] | -0.441

What follows are sequences tested on TO-N3-2 (biotin conjugate) in the same assay as above. Conditions: RNA library: Library-2.
Outline: as §1

Sequence | pull-down binding Z-score
CAGCCUGUUGUCAAGGCUG [hsa-mir-3130-1] | -0.199
CAGCCUUGACAACAGGCUG [hsa-mir-3130-2] | -0.289
CAGCUACACAAGCUG [hsa-mir-631] | -0.859
CAGCUGUUGUCUCCAGAGCAUUCCAGCUG [hsa-mir-191] | 1.46
CAGCUUGCUCUGCUUU [hsa-mir-4303] | 0.0746
CAGGAGUGGACACCUG [hsa-mir-1246] | -0.454
CAGGAUUAGUGCUUAUGCUAAGAUGUCUUCACUG [hsa-mir-6773] | -0.301
CAGGCAGUGGAGUUACUU [hsa-mir-600] | 1
CAGGCCAGGGGCAGACAGUGGACAGAGAACAGUGCCCAAGACCACUG [hsa-mir-378e] | 1.73
CAGGCGGGGCAGCCCAAUGCCAUGGGCCUGAU [hsa-mir-4695] | 1.92
CAGGCUGCUAAACAACAGAACGAGCACUG [hsa-mir-378f] | 0.421
CAGGCUGGUCUCAAACUCCUGGUCUG [hsa-mir-1285-1] | -0.123
CAGGCUGUGGCUCUCUGAAAGUC [hsa-mir-148b] | 1.18
CAGGGAACUUUAAAACC [hsa-mir-4324] | 0.306
CAGGGCGGUGCGGCAGCCGCCACC [hsa-mir-3621] | 1.24
CAGGGGUUCUGAUAAACCCUUC [hsa-mir-6738] | 0.161
CAGGUAGUUUUGGCAUGACUCUACUG [hsa-mir-20b] | 1.44
CAGGUGCCUCAAAGGGCAUCCCACCUG [hsa-mir-3151] | 0.0349
CAGGUGUUCUUAAAAUCACCUG [hsa-mir-875] | -1.05
CAGUAAGCCUUGACUUAUGGCUAAAUGCUUC [hsa-mir-4273] | 0.273

Sequence | pull-down binding Z-score
CAGUACUGGUCUUAGACUG [hsa-mir-554] | 0.25
CAGUAUGAAUGAAUUCAUGAUACUG [hsa-mir-3607] | -0.531
CAGUCAGUAAAUAUUUUUUUGUGAAUG [hsa-mir-511] | -0.132
CAGUCCUGAGAUGCAGGGACUG [hsa-mir-4799] | -0.727
CAGUGAACUAUCAUUGUGCCACUG [hsa-mir-1254-1] | -0.0953
CAGUGACAUGCGUUUAAC [hsa-mir-4485] | 0.0479
CAGUGAGCCAAGAUCGUGCCACUG [hsa-mir-1273d] | -0.0234
CAGUGAGCUAUGAUCAUGUCCCUG [hsa-mir-1254-2] | 0.362
CAGUGCACCUUCAUGAACCG [hsa-mir-938] | 1.14
CAGUGCUUUUAGAAAAUUUGUGUG [hsa-mir-581] | -0.187
CAGUGGCAGAUUUUCCCAUAG [hsa-mir-4727] | -0.00285
CAGUGGCAUCUGUCAUUG [hsa-mir-4663] | -0.784
CAGUGGGGACAUG [hsa-mir-4531] | 0.957
CAGUGGUGCCAUCUCCCCUG [hsa-mir-5008] | 0.471
CAGUGUUAGCUCCAGAAGCAUUG [hsa-mir-3170] | 0.644
CAGUUGUACUGUGGCUG [hsa-mir-1291] | 0.0227
CAUACAUAUGCCUACUACUACUUUCAUAUGUAGGCAUAUGUAUG [hsa-mir-7852] | -0.89
CAUACAUUUUGAAUAUGUAUG [hsa-mir-299] | -1.29
CAUAUGUAUGUAUGUAUGUCUGUUACACAUAUG [hsa-mir-3688-1] | -0.421
CAUAUGUGUAACAGACAUACAUACAUACAUAUG [hsa-mir-3688-2] | -1.31

Sequence | pull-down binding Z-score
CAUCACUGGAAUGUUCCAGCGACU [hsa-mir-3654] | -0.17
CAUCAUUUGCACUACUGAUACUUGGGGUCAGAUAAUUGUUUGUGGUG [hsa-mir-4447] | -0.616
CAUCCCGGACGGCCUGUGAGGGAUG [hsa-mir-4787] | 0.952
CAUGAGCCCUUUGGAAAGGUCUCGUG [hsa-mir-4711] | -0.478
CAUGAUUUGGAAAAAUUACUG [hsa-mir-6128] | -0.315
CAUGCAGCAUGCUUGUCUG [hsa-mir-767] | 0.0549
CAUGCAGGCCACACUGACGGUAACGUUGCAGG [hsa-mir-431] | 1.01
CAUGCAUGUGUCUAGAAAUAUGUUUU [hsa-mir-507] | 0.104
CAUGCGCUAUCUCUGUGUCGUAUG [hsa-mir-380] | -0.0393
CAUGUAUGUGUAUAUACAUAUAUAUG [hsa-mir-297] | -0.648
CAUGUGCUGAGUUCGUGCCAUAUG [hsa-mir-654] | 0.41
CAUGUGGUGGAACGAUGGAAACGGAACAUG [hsa-mir-218-2] | 1
CAUGUUAAGUGUUGUCCUACAG [hsa-mir-5087] | 0.127
CAUUAACGUGGACCAGACAAUAUUAAUG [hsa-mir-4491] | -0.0295
CAUUACUAAACUCAGUAAUG [hsa-mir-451b] | -1.68
CAUUCACAUAGACUAUAAUUGAAUG [hsa-mir-652] | -0.703
CAUUCUUUGCUA [hsa-mir-567] | -0.53
CAUUGGUGUAAAGCUGGAGACCCACUG [hsa-mir-324] | 1.09
CAUUGUAACAUGAUAGUG [hsa-mir-4264] | -0.45
